Two molecules from PMC8096241 can be followed below.

The target in one series is T1, CapR (Vibrio cholerae phage satellite PLE1, UniProt M1R2X8 1-139).
T1 sequence: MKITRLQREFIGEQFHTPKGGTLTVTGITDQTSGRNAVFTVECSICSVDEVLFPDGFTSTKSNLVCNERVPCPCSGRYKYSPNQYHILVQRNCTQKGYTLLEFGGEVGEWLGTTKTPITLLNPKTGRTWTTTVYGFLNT
The experiment in a line: EMSA.

Series [1] concerns the target T2, CapR C43/46/72/74S (4xmut) (Vibrio cholerae phage satellite PLE1, UniProt M1R2X8 1-139, C43S;C46S;C72S;C74S).
T2 sequence: T1 sequence with C43S, C46S, C72S, C74S
The experiment in a line: EMSA.

Numbering of substitutions follows the chain as printed.

B1: probe D (dsDNA)
DNA 1: AATAATCGTTCGCAACAACAAATATTACAATTATTAATGCAAACGACATATTTATTTAAATTA
DNA 2: TAATTTAAATAAATATGTCGTTTGCATTAATAATTGTAATATTTGTTGTTGCGAACGATTATT
For B1, the binding result with CapR is “binds”; in series [1] it was “no binding”.

B2: probe F (dsDNA)
DNA 1: AATAATCGTTCGCAACAACAAATATTACAAT
DNA 2: ATTGTAATATTTGTTGTTGCGAACGATTATT
For the molecule B2, the binding result in the series with CapR was “binds”.
